B1: Amyloid beta precursor protein binding family B member 1 (Homo sapiens), O00213 (parent)
chain: MSVPSSLSQSAINANSHGGPALSLPLPLHAAHNQLLNAKLQATAVGPKDLRSAMGEGGGPEPGPANAKWLKEGQNQLRRAATAHRDQNRNVTLTLAEEASQEPEMAPLGPKGLIHLYSELELSAHNAANRGLRGPGLIISTQEQGPDEGEEKAAGEAEEEEEDDDDEEEEEDLSSPPGLPEPLESVEAPPRPQALTDGPREHSKSASLLFGMRNSAASDEDSSWATLSQGSPSYGSPEDTDSFWNPNAFETDSDLPAGWMRVQDTSGTYYWHIPTGTTQWEPPGRASPSQGSSPQEESQLTWTGFAHGEGFEDGEFWKDEPSDEAPMELGLKEPEEGTLTFPAQSLSPEPLPQEEEKLPPRNTNPGIKCFAVRSLGWVEMTEEELAPGRSSVAVNNCIRQLSYHKNNLHDPMSGGWGEGKDLLLQLEDETLKLVEPQSQALLHAQPIISIRVWGVGRDSGRERDFAYVARDKLTQMLKCHVFRCEAPAKNIATSLHEICSKIMAERRNARCLVNGLSLDHSKLVDVPFQVEFPAPKNELVQKFQVYYLGNVPVAKPVGVDVINGALESVLSSSSREQWTPSHVSVAPATLTILHQQTEAVLGECRVRFLSFLAVGRDVHTFAFIMAAGPASFCCHMFWCEPNAASLSEAVQAACMLRYQKCLDARSQASTSCLPAPPAESVARRVGWTVRRGVQSLWGSLKPKRLGAHTP

Variants of: B1
Settings: with lrp1_human LRP1, Q07954
Sequence of lrp1_human LRP1, Q07954 (Q07954 whole entry): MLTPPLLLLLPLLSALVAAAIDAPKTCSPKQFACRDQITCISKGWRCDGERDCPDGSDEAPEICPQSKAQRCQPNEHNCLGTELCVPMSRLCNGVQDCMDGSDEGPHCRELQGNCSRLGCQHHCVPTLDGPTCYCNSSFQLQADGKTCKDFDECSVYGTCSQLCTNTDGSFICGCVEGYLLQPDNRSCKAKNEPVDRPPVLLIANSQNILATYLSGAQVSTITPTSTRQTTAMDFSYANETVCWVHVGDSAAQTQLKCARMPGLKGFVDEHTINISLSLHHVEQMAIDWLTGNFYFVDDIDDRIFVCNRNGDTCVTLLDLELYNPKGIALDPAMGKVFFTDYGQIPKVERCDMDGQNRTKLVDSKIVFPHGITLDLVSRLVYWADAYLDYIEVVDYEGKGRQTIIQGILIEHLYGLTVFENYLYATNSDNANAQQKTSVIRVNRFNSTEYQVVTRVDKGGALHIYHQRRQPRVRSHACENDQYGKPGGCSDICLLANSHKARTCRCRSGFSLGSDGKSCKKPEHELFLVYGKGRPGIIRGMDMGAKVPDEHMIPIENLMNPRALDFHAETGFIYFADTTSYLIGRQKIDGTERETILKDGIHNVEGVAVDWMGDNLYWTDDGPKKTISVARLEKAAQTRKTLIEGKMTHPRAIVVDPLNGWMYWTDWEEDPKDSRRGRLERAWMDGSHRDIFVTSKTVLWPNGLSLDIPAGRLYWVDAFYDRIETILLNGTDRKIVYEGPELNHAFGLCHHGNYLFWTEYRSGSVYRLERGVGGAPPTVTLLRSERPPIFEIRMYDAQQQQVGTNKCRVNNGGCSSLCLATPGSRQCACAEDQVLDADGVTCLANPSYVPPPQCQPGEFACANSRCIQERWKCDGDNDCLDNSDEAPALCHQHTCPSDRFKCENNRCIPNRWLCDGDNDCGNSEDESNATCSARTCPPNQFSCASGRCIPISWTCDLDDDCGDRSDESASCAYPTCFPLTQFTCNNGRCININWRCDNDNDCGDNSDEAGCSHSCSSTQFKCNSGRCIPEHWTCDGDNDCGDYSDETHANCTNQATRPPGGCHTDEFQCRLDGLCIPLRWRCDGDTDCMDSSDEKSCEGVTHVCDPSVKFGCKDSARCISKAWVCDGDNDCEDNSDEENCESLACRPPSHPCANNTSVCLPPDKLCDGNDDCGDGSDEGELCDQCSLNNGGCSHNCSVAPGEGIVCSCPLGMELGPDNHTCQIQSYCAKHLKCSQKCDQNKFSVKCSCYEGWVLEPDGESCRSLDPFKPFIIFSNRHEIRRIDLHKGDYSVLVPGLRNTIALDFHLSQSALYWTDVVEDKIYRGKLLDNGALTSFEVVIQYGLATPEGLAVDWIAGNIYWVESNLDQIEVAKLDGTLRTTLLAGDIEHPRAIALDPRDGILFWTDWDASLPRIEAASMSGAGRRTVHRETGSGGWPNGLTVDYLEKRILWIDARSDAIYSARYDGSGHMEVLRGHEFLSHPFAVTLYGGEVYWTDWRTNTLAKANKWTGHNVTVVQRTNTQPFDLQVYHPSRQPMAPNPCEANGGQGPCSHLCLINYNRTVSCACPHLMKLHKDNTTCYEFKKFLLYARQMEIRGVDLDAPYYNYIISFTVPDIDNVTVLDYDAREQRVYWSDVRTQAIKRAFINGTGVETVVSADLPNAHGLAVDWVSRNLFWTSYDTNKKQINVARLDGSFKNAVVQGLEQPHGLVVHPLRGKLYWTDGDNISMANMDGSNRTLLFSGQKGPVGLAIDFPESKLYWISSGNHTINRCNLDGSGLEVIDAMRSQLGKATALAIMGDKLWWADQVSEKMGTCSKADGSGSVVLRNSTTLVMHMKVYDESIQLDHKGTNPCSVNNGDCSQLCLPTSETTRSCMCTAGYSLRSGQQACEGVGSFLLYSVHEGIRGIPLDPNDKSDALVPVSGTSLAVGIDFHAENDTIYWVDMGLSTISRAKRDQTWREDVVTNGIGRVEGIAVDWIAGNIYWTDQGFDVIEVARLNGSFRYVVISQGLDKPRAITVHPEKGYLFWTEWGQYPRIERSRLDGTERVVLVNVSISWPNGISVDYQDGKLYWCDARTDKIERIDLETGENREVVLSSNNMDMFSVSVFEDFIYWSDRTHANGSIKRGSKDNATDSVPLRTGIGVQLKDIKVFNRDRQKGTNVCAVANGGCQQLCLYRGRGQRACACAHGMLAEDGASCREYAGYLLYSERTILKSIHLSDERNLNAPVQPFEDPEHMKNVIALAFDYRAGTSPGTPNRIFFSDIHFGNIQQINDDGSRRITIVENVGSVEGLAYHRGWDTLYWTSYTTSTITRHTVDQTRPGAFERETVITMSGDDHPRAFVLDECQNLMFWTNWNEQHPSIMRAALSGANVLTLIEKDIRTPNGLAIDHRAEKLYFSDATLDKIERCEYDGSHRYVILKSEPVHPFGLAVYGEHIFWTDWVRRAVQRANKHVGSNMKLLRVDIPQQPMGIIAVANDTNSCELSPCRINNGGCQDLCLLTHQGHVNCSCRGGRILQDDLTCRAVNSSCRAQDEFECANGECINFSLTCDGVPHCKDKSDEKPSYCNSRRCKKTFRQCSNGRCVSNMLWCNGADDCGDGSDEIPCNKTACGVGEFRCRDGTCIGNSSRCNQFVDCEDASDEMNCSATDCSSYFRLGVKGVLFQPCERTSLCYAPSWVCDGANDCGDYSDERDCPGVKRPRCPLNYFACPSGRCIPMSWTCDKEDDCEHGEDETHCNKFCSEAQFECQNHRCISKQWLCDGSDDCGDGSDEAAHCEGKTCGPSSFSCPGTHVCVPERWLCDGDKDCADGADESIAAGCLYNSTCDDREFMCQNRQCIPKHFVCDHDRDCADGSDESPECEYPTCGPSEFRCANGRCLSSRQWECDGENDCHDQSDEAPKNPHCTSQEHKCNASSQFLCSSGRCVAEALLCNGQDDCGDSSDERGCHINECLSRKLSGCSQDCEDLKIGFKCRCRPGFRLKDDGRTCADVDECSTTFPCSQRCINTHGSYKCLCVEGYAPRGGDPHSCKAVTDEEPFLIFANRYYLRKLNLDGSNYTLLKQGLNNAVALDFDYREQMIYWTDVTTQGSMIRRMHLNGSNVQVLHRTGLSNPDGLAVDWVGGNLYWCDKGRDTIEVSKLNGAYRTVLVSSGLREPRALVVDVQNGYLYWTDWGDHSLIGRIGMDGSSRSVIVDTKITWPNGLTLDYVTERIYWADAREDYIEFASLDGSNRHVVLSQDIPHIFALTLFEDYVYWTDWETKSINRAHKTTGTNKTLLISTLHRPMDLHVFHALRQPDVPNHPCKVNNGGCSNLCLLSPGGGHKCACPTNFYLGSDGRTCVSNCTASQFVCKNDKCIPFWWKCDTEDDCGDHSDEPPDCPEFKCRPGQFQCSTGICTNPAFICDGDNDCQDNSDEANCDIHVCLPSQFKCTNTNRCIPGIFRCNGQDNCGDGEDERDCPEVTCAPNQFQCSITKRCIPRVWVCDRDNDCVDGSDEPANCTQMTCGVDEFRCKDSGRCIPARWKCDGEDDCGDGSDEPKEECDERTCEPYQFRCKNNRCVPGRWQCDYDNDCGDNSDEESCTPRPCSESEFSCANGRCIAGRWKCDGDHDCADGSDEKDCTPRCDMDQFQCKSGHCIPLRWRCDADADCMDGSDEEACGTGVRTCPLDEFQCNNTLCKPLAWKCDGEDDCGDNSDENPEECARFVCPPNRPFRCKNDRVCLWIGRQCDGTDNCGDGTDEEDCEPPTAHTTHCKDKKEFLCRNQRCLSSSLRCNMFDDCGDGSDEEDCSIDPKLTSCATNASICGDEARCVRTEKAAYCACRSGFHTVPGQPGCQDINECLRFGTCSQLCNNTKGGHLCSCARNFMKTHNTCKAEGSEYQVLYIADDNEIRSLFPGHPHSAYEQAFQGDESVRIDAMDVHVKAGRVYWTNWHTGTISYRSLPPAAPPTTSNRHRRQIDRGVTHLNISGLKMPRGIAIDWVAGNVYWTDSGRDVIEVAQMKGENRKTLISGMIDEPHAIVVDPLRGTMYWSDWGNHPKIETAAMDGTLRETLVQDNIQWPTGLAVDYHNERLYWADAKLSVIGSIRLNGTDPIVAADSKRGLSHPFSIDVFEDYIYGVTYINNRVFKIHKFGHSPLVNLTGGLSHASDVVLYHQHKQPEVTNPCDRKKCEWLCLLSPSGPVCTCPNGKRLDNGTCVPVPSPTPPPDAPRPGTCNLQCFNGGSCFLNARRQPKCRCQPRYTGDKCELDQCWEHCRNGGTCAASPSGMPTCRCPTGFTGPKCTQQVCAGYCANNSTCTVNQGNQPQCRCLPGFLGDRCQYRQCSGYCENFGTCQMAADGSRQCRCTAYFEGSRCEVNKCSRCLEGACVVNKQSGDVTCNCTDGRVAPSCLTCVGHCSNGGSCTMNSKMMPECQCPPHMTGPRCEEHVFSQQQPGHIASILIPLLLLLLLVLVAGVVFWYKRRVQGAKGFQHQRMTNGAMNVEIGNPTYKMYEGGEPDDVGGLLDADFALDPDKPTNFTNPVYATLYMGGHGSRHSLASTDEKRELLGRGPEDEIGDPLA

effect of a mutation on the interaction	Variant
disrupting interaction	R451A
disrupting interaction	R470A
